Measured values as given in article PMC3032389.

Molecular target: NMDA receptor NR1-1a subunit, full length (rat)
Experiment: co-IP

Csk co-precipitated with NR1 after PP2 (10 μM), percent of that without PP2: 48%
Substance: C-terminal Src kinase (Csk) (from UniProt P41240 1-450) (enzyme)
